Source: patent US12194082B2, “Compositions and methods for treatment of homocystinuria” (THE REGENTS OF THE UNIVERSITY OF COLORADO, priority 2016, dated 2025)
“And” between values parts separate entries of the source, which are not always exact repeats. Equal entries are not always repeated.

Tests used:
[1] = CBS enzyme activity assay, specific activity of pure enzyme; type: biochemical; conditions: lots used in osmotic pumps
Method: (§1) CBS activity was determined by a radioisotope assay with C^14-labeled serine as a substrate. Ten μl (total 490 ng) of pure htCBS in dilution buffer (0.1 M Tris-HCl pH=8.6, 1 mM DTT, 10 μM PLP, 0.5 mg/ml BSA) or 10 μl of plasma were added to 85 μl of reaction mixture containing 0.1 M Tris-HCl pH=8.6, 10 mM L-serine, 0.5 mM PLP, 0.5 mg/ml BSA and 0.3 μCi (for pure enzyme) or 0.45 μCi (for plasma) of L-[C^14(U)]-Serine. Samples were incubated for 5 min at 37° C. and reaction was initiated by addition of 5 μl of 0.2 M Hcy (10 mM final concentration). Following 30 min of incubation at 37° C., a 20 μl aliquot of the assay mixture was applied onto a grade 3 CHR Whatman (NJ, USA) paper. Assay initiation and sampling of the resulting mixture were staggered so that each reaction time was 30 minutes. Descending paper chromatography was used to isolate the radioactive product (Cth) from a labeled substrate (Ser). The C^14-cystathionine formed in the reaction was separated from C^14-serine by an overnight descending paper chromatography in 2-propanol/formic acid/H2O (75:5.7:18.9 v/v). Radioactivity in the area of the marker cystathionine (detected by staining the marker lane with ninhydrin) was determined by cutting the chromatogram into strips that were submerged in 5 ml of Opti-fluor scintillation cocktail (PerkinElmer, MA, USA) and counted in a Beckman LS-3801 scintillation counter. An enzyme-free sample was used as a blank to monitor the background radioactivity that was then subtracted from each sample. For pure enzyme, specific activity values are expressed as enzyme units (the amount of enzyme that produces 1 μmol of cystathionine/hour) per mg of CBS, and for plasma samples as units per μl plasma.

I278T mice = assay: DEXA bone mineralization and body composition in I278T mice; type: in vivo, mouse; conditions: 7.5 mg/kg SC 3x/week from 6 to 13 months of age
Method: A PIXImusII DEXA scanner (GE Lunar Medical Systems) specifically designed for scanning small animals such as mice was used for DEXA analysis. This machine enabled quick and efficient determination of the body composition (lean, fat mass, and bone density) of a mouse before terminal tissue extraction procedures. Mice were fasted for 4 hours prior to the DEXA measurement to remove food from the gastro-intestinal tract. Mice were then anesthetized using IP bolus injection of 60 mg/kg ketamine and 15 mg/kg xylazine and placed on a tray in the DEXA machine. After the measurement was done (3˜5 minutes), the mice were removed from the DEXA machine and used in terminal procedures, such as tissue extractions.
The bone mineral density (BMD) and bone mineral content (BMC) were analyzed by DEXA for three groups of I278T mice: +/− healthy heterozygous controls (n=10M+11F), −/− affected homozygous I278T controls (n=6M+8F), and 20NHS PEG-htCBS C15S-treated I278T mice (n=6M+6F). The 20NHS PEG-htCBS C15S (C15S/ME-200GS)-treated I278T mice were administered 7.5 mg/kg subcutaneously (SC) 3 times per week from the age of 6 months up to the age of 13 months. FIG. 17A, FIG. 17B, FIG. 17C, FIG. 17D, and FIG. 17E are graphs comparing BMD (g/cm^2), BMC (g), total mass (g), lean mass (g), and fat content (%), respectively, among the three groups of mice. […]

[2] = rat, in vivo, sc
Method: as §1
(§2) The pharmacokinetic (PK) parameters were calculated using a non-compartmental curve stripping model which resolves a curve into a series of exponential terms corresponding to the absorption, distribution and elimination phases occurring during the time course of the enzyme in the blood. The curve stripping approach assumes that the disposition phases of the drug follow apparent first-order kinetics, which is evidenced by the linearity in the terminal portion of a semi-log plot. These calculations were made using a modeling program called PK Solutions 2.0 (Summit Solutions, Montrose, CO) using the mean plasma enzyme activity for each route of administration. The bioavailability was calculated by dividing the area under the curve (AUC) for the SC or IP route by the AUC observed after IV administration.
(§3) In order to assess the pharmacokinetics of 20NHS PEG-htCBS C15S in rats, wild-type Sprague Dawley rats were injected with a single dose of 20NHS PEG-htCBS C15S through intra-vascular (IV) or sub-cutaneous (SC) routes. The design of a third (repeated dose) PK study (groups 7-9) was adjusted to allow extraction of data after the first dose and thus their combination with a single dose PK study (groups 1-6).
(§4) To further evaluate rats as a species for conducting long-term toxicity studies, the pharmacokinetics of 20NHS PEG-htCBS C15S was determined in three groups of Sprague Dawley rats receiving a total of 9 SC injections every 48 hours of either 4 mg/kg (low), 8 mg/kg (mid), or 24 mg/kg (high) 20NHS PEG-htCBS C15S. […] The experiment was conducted for a length of 24 days.

[3] = Pharmacokinetics of 20NHS PEG-htCBS C15S in rats; conditions: for AUC/dose corrected to 80% bioavailability / Cmax/dose corrected to 80% bioavailability / tmax: SC
Method: as §1, §2, §3, §4

KO mice = assay: Liver light and electron microscopy of treated KO mice; type: in vivo, mouse; conditions: 7.5 mg/kg SC 3x/week from 2 days of age, day 17-19
Method: The PBS-injected or PEGylated htCBS conjugate, such as 20NHS PEG-htCBS C15S, treated KO mice were sacrificed on day 17-19 and liver samples were processed for histological analysis by optical microscopy. The histological assessment was carried out in a blinded fashion. Livers were removed and were fixed for 24 hours with 4% paraformaldehyde in PBS (pH 7.4). Tissue blocks for histology were trimmed, dehydrated with an ethanol series followed by acetone, acetone-xylene mixture, and xylene, then embedded in paraffin. In parallel, small tissue blocks (around 4 mm×2 mm) fixed with paraformaldehyde were rapidly frozen in petrol ether cooled with dry ice, and stored at −50° C. for detection of apolar lipids. Paraffin sections 4 μm thick were deparaffinized in xylene and after isopropyl alcohol step rehydrated with ethanol (96%, 70%, 60%). Tissue sections were stained with hematoxylin and eosin (H&E) to evaluate histopathological changes. Masson trichrome staining was performed for detection of fibrosis. Steatosis was verified using Oil Red O staining for detection of apolar lipids in fixed-frozen sections that was 10 μm thick and cut with a Leica Cryomicrotome (CM 1850). The sections were viewed and photographed with a Nikon light microscope (E800) equipped with Olympus digital camera (DP70). […]

## 20NHS PEG-htCBS C15S: htCBS C15S PEGylated with ME-200GS PEG (20 kDa linear NHS ester-activated PEG)
[1]
  specific activity of administered enzyme: 673.9 ± 13.2 U/mg
[1]; listed as ME-200GS PEGylated htCBS C15S
  specific activity of administered enzyme: 623.2 ± 16.4 U/mg
I278T mice
  bone mineralization (BMD) vs healthy heterozygous controls: indistinguishable
  osteoporosis and body composition (DEXA): prevented profound osteoporosis and improved body composition
[2]
  elimination half-life (T1/2): 44.5 h
[3]; 9 SC injections every 48 hours, 4, 8 or 24 mg/kg
  plasma CBS activity on repeated dosing: substantial decline in peak CBS activities
[3]; Rat/Female
  AUC/dose corrected to 80% bioavailability: 1233 (mU-h/mL)/(mg/kg)
  Cmax/dose corrected to 80% bioavailability: 16 (mU/μL)/(mg/kg)
  tmax: 29 h
[3]; Rat/Male
  AUC/dose corrected to 80% bioavailability: 1452 (mU-h/mL)/(mg/kg)
  Cmax/dose corrected to 80% bioavailability: 17 (mU/μL)/(mg/kg)
  tmax: 35 h
[3]; females, 4 mg/kg IV
  AUC0−t (obs area): 6165 mU-h/μl
  Bioavailability: 100%
  MRT (area): 45.5 h
  cp0: 186.2 mU/μl
[3]; females, 8 mg/kg SC
  AUC0−t (obs area): 4505 mU-h/μl
  Bioavailability: 36.5%
  MRT (area): 76.8 h
  cmax: 58.2 mU/μl
  tmax (obs): 24 h
[3]; females, 24 mg/kg SC
  AUC0−t (obs area): 13135 mU-h/μl
  Bioavailability: 35.5%
  MRT (area): 79.8 h
  cmax: 166.3 mU/μl
  tmax (obs): 48 h
[3]; male rats, across doses
  bioavailability (F %) after SC administration: 19-21% and 20%
[3]; males, 4 mg/kg IV
  AUC0−t (obs area): 7231 mU-h/μl
  Bioavailability: 100%
  MRT (area): 52.9 h
  cp0: 182.1 mU/μl
[3]; males, 8 mg/kg SC
  AUC0−t (obs area): 2703 mU-h/μl
  Bioavailability: 18.7%
  MRT (area): 65.6 h
  cmax: 32.7 mU/μl
  tmax (obs): 48 h
[3]; males, 24 mg/kg SC
  AUC0−t (obs area): 9269 mU-h/μl
  Bioavailability: 21.3%
  MRT (area): 66.1 h
  cmax: 110.0 mU/μl
  tmax (obs): 38 h
KO mice
  liver parenchyma, light microscopy: regular liver architecture and minimal anizokaryosis
